Paper PMC300677

Biological target: isolated iron-loaded transferrin C-lobe (Fe-C-lobe)
Assay: biosensor binding assay (SPR), equilibrium analysis

Kd (KD1) | ratio to parent (KD1) | Kd (KD2) | ratio to parent (KD2) | ratio to parent (KD1, KD2 relative to wild-type, single entry) | Substance
1000 nM | 1.2 | 2600 nM | 0.8 |  | soluble human transferrin receptor 1 (TfR) ectodomain, wild type (from UniProt P02786) D125K
1900 nM | 2.4 | 2700 nM | 0.8 |  | soluble human transferrin receptor 1 (TfR) ectodomain, wild type (from UniProt P02786) F760A
 |  |  |  | > 1000 | soluble human transferrin receptor 1 (TfR) ectodomain, wild type (from UniProt P02786) R651A
800 nM | 1 | 5700 nM | 1.7 |  | soluble human transferrin receptor 1 (TfR) ectodomain, wild type (from UniProt P02786) Y123S
